Key:
[1] = Dicamba decarboxylation activity of computationally designed protein variants; conditions: for Dicamba Decarboxylase Activity: native protein or designed variant versus parent; for Dicamba Decarboxylation activity: Table 5, designed variants with improved activity; for Percent Activity Improvement Over Parent (%): parent SEQ ID NO:1 or SEQ ID NO:41 listed as 100
[2] = Detection of 2,5-DCP product by GC/MS; format: biochemical; conditions: purified protein
Description: The decarboxylated and demethylated product of dicamba, 2,5-dichloro phenol or 2,5-DCP (FIG. 1E) is measured using a GC/MS analytical procedure with either liquid injection after liquid/liquid extraction using toluene as the extraction solvent or gas injection using head space method. The head space sample analysis is carried out on an Agilent GC/MS system with a 6890A GC, a 5973N MSD and a CTC CombiPAL auto-sampler or with a 7890A GC, a 5975C MSD and an Agilent GC Sampler 80 auto-sampler with Phenomenex ZB-MultiResidue-1 column (30 m length, 0.25 mm diameter, 0.25 um film) or equivalent. GC/MS parameters are: GC inlet temperature, 200° C.; Carry gas, helium in constant flow mode (1.2 mL/min); Oven temperature program, 70° C. for 1 min and then ramp to 275° C. at 40° C./min. […] The reaction vial is transferred to a agitator for incubation at 90° C. for 4 min at 500 rpm. With a syringe preheated at 110° C., 1000 uL of head space is injected with sample fill speed at 100 uL/sec. A 2-mm diameter liner is used in sample inlet. The MS data acquisition is done in SIM (selected ion monitoring) mode. The positive ion at M/Z 162 for the molecular ion of 2,-5-DCP is monitored at retention time of 4.06 min. Solvent delay for MS acquisition is set at 3 min. GC/MS parameters for liquid sample analysis are the same as those for head space analysis, except that the volume of liquid injection is 1 uL.

[3] = 14C assay with purified protein (14CO2 captured on Ca(OH)2 filter paper); format: biochemical; conditions: [14C]-carboxyl-labeled dicamba
[4] = Detection of 4-chloro-3-methoxy phenol product by LC-MS/MS; format: biochemical; conditions: purified protein
Description: The decarboxylated and chloro hydrolyzed product, 4-chloro-3-methoxy phenol (FIG. 1D), is measured using a LC-MS/MS analytical procedure. […] 10 ul is removed from the reaction mixture and mixed with 90 ul pre-chilled methanol followed by centrifugation at 14,000 rpm for 15 min at 4° C. 10 ul of the supernatant is then transferred into 170 ul ddH2O to achieve 5% methanol solution for injection. 50 ul of the prepared sample is injected into a 4000 Q Trap LC-MS/MS system for sample analysis. LC-MS/MS parameters are: Mobile Phase A, 2 mM ammonium acetate in water; Mobile Phase B, 2 mM ammonium acetate in methanol; Column, Aquasil, 100×2.1 mm, 3 μm, C18 column; Flow Rate, 0.6 ml/min. The MS/MS fragment 157/142 which is common to 4-chloro-3-methoxy phenol, 2-chloro-5-methoxy phenol, and 3-chloro-5-methoxy phenol is monitored at a retention time of 2.88 min.

[5] = 14C assay with IPTG-induced recombinant E. coli cells (14CO2 capture from [14C]-carboxyl-labeled dicamba); conditions: for Enzymatic Detection level: dicamba decarboxylation activity of the protein of the given SEQ ID NO; for decarboxylation activity of dicamba: E. coli cell assay, 108 sequences tested

Row | Molecule | Dicamba Decarboxylase Activity [1] | 2,5-DCP product [2] | CO2 product [3] | 4-chloro-3-methoxy phenol product [4] | Dicamba Decarboxylation activity [1] | Percent Activity Improvement Over Parent (%) [1] [%] | Enzymatic Detection level [5] | decarboxylation activity of dicamba [5]
1 | SEQ ID NO:116: Design variant of SEQ ID NO: 41; new 35 amino acid N-terminal loop (protein, Dicamba decarboxylase variant clone DC.30.007, new 35 amino acid N-terminal loop) MAQGKVALEEHFAIPETLQDAAGFVPGDYWKELQHRLLDIQDRRVRLMDEHGIETMILSLNAPAVQAIADSTRANETARRANDFLAEQVAKQPTRFRGFAALPMQDPELAARELERCVKELGFVGALVNGFSQDNRSAVPLYYDMAQYWPFWETVQALDVPFYLHPRNPLPSDARIYDGHAWLLGPTWAFGQETAVHALRLMGSGLFDKYPALKIILGHMGEGLPYSMWRIDHRNAWIKTTPKYPAKRKIVDYFNENFYLTTSGNFRTQTLIDAILEIGADRILFSTDWPFENIDHAADWFENTSISEADRKKIGWGNAQNLFKLNR | displays an increase in dicamba decarboxylase activity | detected | detected | detected |  |  |  | 
2 | 116 (protein, Dicamba decarboxylase variant clone DC.30.007) MAQGKVALEEHFAIPETLQDAAGFVPGDYWKELQHRLLDIQDRRVRLMDEHGIETMILSLNAPAVQAIADSTRANETARRANDFLAEQVAKQPTRFRGFAALPMQDPELAARELERCVKELGFVGALVNGFSQDNRSAVPLYYDMAQYWPFWETVQALDVPFYLHPRNPLPSDARIYDGHAWLLGPTWAFGQETAVHALRLMGSGLFDKYPALKIILGHMGEGLPYSMWRIDHRNAWIKTTPKYPAKRKIVDYFNENFYLTTSGNFRTQTLIDAILEIGADRILFSTDWPFENIDHAADWFENTSISEADRKKIGWGNAQNLFKLNR |  |  |  |  | Yes | 220 | High | 
3 | SEQ ID NO:108: hypothetical protein SAV2580, Staphylococcus aureus subsp. aureus Mu50 (protein, listed as Staphylococcus aureus) MAKSITFEEHYVIEDIQKETMNAISADPKGVPMKVMLEGLEKKTGFTNADELSHHDERIQFMNNQDVQIQVLSYGNGSPSNLVGQKAIELCQKANDQLANYIAQYPNRFVGFATLPINEPEAAAREFERCINDLGFKGALIMGRAQDGFLDQDKYDIIFKTAENLDVPIYLHPAPVNSDIYQSYYKGNYPEVTAATFACFGYGWHIDVGIHAIHLVLSGIFDRYPKLNMIIGHWGEFIPFFLERMDEALFAEHLNHSVSYYFKNSFYITPSGMLTKPQFDLVKKEVGIDRILYAADYPYIEPEKLGVFLDELGLTDEEKEKISYTNGAKLLGLSSNN |  | detected | detected | detected |  |  |  | showed decarboxylation activity of dicamba
4 | SEQ ID NO:115: Design variant of SEQ ID NO: 1 (protein, Dicamba decarboxylase variant clone DC.4.161) MAQGKVALEEHFAIPDTLTTYTTSGDYEKELKHRLLDIQDTRLKLMDAHGIETMILSLNAPGVQAIPDRRKAIEIARRANDVLAEECAKRPDRFLAFAALPLQDPDAATEELQRCVNDLGFVGALVNGFSQEGDGQTPLYYDLPQYRPFWGEVEKLDVPFYLHPRNPLPQDSRIYDGHPWLLGPTWAFAQETAVHALRLMASGLFDEHPRLNIILGHMGEGLPYMMWRIDHRNAWVKTPPRYPAKRRFMDYFNENFHITTSGNFRTQTLIDAILEIGADRILFSTDWPFENIDHASDWFNATSIAEADRVKIGRTNARRLFKLDGA | displays an increase in dicamba decarboxylase activity | detected | detected | detected |  |  |  | 
5 | 115 (protein, Dicamba decarboxylase variant clone DC.4.161) MAQGKVALEEHFAIPDTLTTYTTSGDYEKELKHRLLDIQDTRLKLMDAHGIETMILSLNAPGVQAIPDRRKAIEIARRANDVLAEECAKRPDRFLAFAALPLQDPDAATEELQRCVNDLGFVGALVNGFSQEGDGQTPLYYDLPQYRPFWGEVEKLDVPFYLHPRNPLPQDSRIYDGHPWLLGPTWAFAQETAVHALRLMASGLFDEHPRLNIILGHMGEGLPYMMWRIDHRNAWVKTPPRYPAKRRFMDYFNENFHITTSGNFRTQTLIDAILEIGADRILFSTDWPFENIDHASDWFNATSIAEADRVKIGRTNARRLFKLDGA |  |  |  |  | Yes | 202 | High | 
6 | SEQ ID NO:32: o-pyrocatechuate decarboxylase, Streptomyces violaceusniger Tu 4113 (protein, Streptomyces violaceusniger) MARIIAIEEHFLDLDIARASRPEAERLSPAFAAAYGAGQGYNYSPAPEVLLDLEEGRVADMDAHGISMQVLSSLSTQQLPADVAVELVRKVNDRAAAAVAARPDRFAAFAALPTTVPEAAADELDRAVGELGFVGSMINGRTGDAFLDAPRFDAVLRRSAELRVPVYLHPGVPPVETSRSNYEGGLDPIVTARLQTSAWGWHVETGIHFLHLVLAGVFDRYPDLQVILGHWGEMVPFFLERIEEALPQQITHLDRPVGAYFRENAHITPSGMFSQAQLQFCVETVGIERIMFSVDYPFLGNDGAEAFLRQANLPPLATEKIAHLNAERLLALPS |  | detected | detected | detected |  |  |  | showed decarboxylation activity of dicamba
7 | SEQ ID NO:114: Design variant of SEQ ID NO: 1 (protein, Dicamba decarboxylase variant clone DC.4.116) MAQGKVALEEHFAIPETLQDSAGAVPGDYWKELQHRLLDIQDTRLKLMDAHGIETMILSLNAPAVQAIPDRRKAIEIARRANDVLAEECAKRPDRFLAFAALPLQDPDAATEELQRCVNDLGFVGALVNGFSQEGDGQTPLYYDLPQYRPFWGEVEKLDVPFYLHPRNPLPQDSRIYDGHPWLLGPTWAFAQETAVHALRLMASGLFDEHPRLNIILGHMGEGLPYMMWRIDHRVAWVKLPPRYPAKRRFMDYFNENFHITTSGNFRTQTLIDAILEIGADRILFSTDWPFENIDHASDWFNATSIAEADRVKIGRTNARRLFKLDGA | displays an increase in dicamba decarboxylase activity | detected | detected | detected |  |  |  | 
8 | 110 (protein, Dicamba decarboxylase variant clone DC.4.111) MAQGKVALEEHFAIPETLQDSMGFVPGDYWKELMHRLLDIQDTRLKLMDAHGIETMILSLNAPAVQAIPDRRKAIEIARRANDVLAEECAKRPDRFLAFAALPLQDPDAATEELQRCVNDLGFVGALVNGFSQEGDGQTPLYYDLPQYRPFWGEVEKLDVPFYLHPRNPLPQDSRIYDGHPWLLGPTWAFAQETAVHALRLMASGLFDEHPRLNIILGHMGEGLPYMMWRIDHRMAWVKLPPRYPAKRRFMDYFNENFHITTSGNFRTQTLIDAILEIGADRILFSTDWPFENIDHASDWFNATSIAEADRVKIGRTNARRLFKLDGA |  |  |  |  | Yes | 277 | High | 
9 | 114 (protein, Dicamba decarboxylase variant clone DC.4.116) MAQGKVALEEHFAIPETLQDSAGAVPGDYWKELQHRLLDIQDTRLKLMDAHGIETMILSLNAPAVQAIPDRRKAIEIARRANDVLAEECAKRPDRFLAFAALPLQDPDAATEELQRCVNDLGFVGALVNGFSQEGDGQTPLYYDLPQYRPFWGEVEKLDVPFYLHPRNPLPQDSRIYDGHPWLLGPTWAFAQETAVHALRLMASGLFDEHPRLNIILGHMGEGLPYMMWRIDHRVAWVKLPPRYPAKRRFMDYFNENFHITTSGNFRTQTLIDAILEIGADRILFSTDWPFENIDHASDWFNATSIAEADRVKIGRTNARRLFKLDGA |  |  |  |  | Yes | 221 | High | 
